# In patent US20060286117A1, “Neuronally expressed stem cell factor modulates angiogenesis and neural stem cell migration to areas of brain injury” (priority 2003, published 2006):
# “Also recorded” adds a separate entry of the source.
# B1: rmSCF: Recombinant mouse SCF (rmSCF) (R&D systems) (protein)
# chain: KEICGNPVTDNVKDITKLVANLPNDYMITLNYVAGMDVLPSHCWLRDMVIQLSLSLTTLLDKFSNISEGLSNYSIIDKLGKIVDDLVLCMEENAPKNIKESPKRPETRSFTPEEFFSIFNRSIDAFKDFMVASDTSDCVLSSTLGPEKDSRVSVTKPFMLPPVA
# How the values were obtained:
# U251 glioma = assay: Subcutaneously implanted U251 human glioma growth; type: in vivo, mouse; conditions: nude mice
# [1] = biological target: mouse c-Kit (SCF receptor) on mouse NSPCs (mouse) (UniProt P05532); assay: cell-based or functional assay
# [2] = biological target: human c-Kit (SCF receptor) on human cells (NSPCs, HUVEC, HBMEC) (human) (UniProt P10721); assay: cell-based or functional assay
# SCID mice [3] = assay: In vivo angiogenesis assay, subcutaneous Matrigel plugs with SCF or β-FGF; parameters: species or system mouse; conditions: subcutaneous Matrigel in adult SCID mice, fourteen days after injection
# Experimental: Confluent-grown ECs were treated with 50 ng/ml of SCF for 5, 10, 15, and 30 min after 24 hr of serum starvation. The ECs were collected with RIPA lysis buffer (Upstate, Charlottesville, Va.) containing 50 mM NaF, 1 mM Na3VO4, […], and Protease Inhibitor Cocktail (Roche). The antibodies were purchased from Cell Signaling Technology, Inc. (Beverly, Mass.) or as mentioned otherwise. All the primary antibodies were used in a 1:1000 dilution except for the anti-SCF antibody, which was used in a 1:2000 dilution. The primary antibodies were anti-phospho-c-Kit, anti-phospho-MEK1/2 and anti-MEK1/2, anti-phospho-p44/42 MAPK and anti-p44/42 MAPK, anti-phospho-SAPK/JNK and anti-SAPK/JNK, anti-phospho-p38 MAPK and anti-p38 MAPK, anti-phospho-Akt and anti-Akt, anti-phospho-mTOR and anti-mTOR, anti-phospho-4E-BP1 and anti-4E-BP1, anti-SCF and anti-VEGF (Chemicon, Temecula, Calif.), and anti-β-tubulin (Sigma). Re-blotting was done after membranes were stripped by re-blot kit (Chemicon). Tie2 detection in Matrigel plugs from the in vivo Matrigel assay was carried out by immunoprecipitation and immunoblotting. The gel plugs were carefully separated from muscle and skin and homogenized with RIPA lysis buffer. The resulting total tissue lysates ([…]) were immunoprecipitated with Tie2 antibody (Santa Cruz Biotechnology, Inc., Santa Cruz, Calif.) and then analyzed by immunoblot with Tie2 antibody (Zadeh et al. 2004 Am J Pathol 162:467-476).
# All adult mice (6-8 weeks of age) were from NCI-Fredrick, and the animal experiments were conducted on an animal experimentation protocol approved by the NCI's animal protection committee (the “ACUC”). […]
# human NSPCs = assay: Boyden chamber migration assay, human NSPCs; type: cell-based
# Experimental: (§1) The effects of SCF on NSPC migration were determined by a modified Boyden chamber assay as described previously (Sun, L. et al. 2001 Cancer Res. 61:4994-5001). A 96-well cell migration kit was utilized (Chemicon, Temecula, Calif., USA) and each well was separated into two chambers by a membrane with 8-μm pores. The cells were briefly trypsinized and adjusted to 4×10^5 cells/ml in 1:20 dilution of B27 medium without growth factors. Some cells were pretreated with a c-Kit-blocking antibody (ACK45, PharMingen, San Diego, Calif., USA) for 30 min at room temperature. Migration of NIH 3T3 cell was also assayed as a control. Recombinant mouse SCF (rmSCF) (R&D systems, Minneapolis, Minn., USA) was dissolved in the same medium and adjusted to the various concentrations. After different concentrations of SCF or brain tissue lysates were added to the lower chamber as attractants, 100 μl of the NSPCs (4×10^4) were applied to the upper chamber on the top of membrane. A group of control chambers without rmSCF was also included. After 4 hours of incubation at 37° C., the migratory cells on the bottom of the insert membrane were dissociated from the membrane by incubation with cell detachment buffer.
# mouse NSPCs = assay: Boyden chamber migration assay, mouse NSPCs; type: cell-based
# Experimental: as §1
# c-Kit [4] = biological target: T1, c-Kit (Homo sapiens, UniProt P10721); assay: c-Kit tyrosine phosphorylation by immunoprecipitation and immunoblot, human NSPCs; type: cell-based; conditions: 100 ng/ml of rmSCF, 10 min
# T1 construct: The 120-kDa and 140-kDa bands represent the c-Kit proteins in the human and mouse NSPCs; endogenous in cells; host or cells: human fetal NSPCs (neurospheres)
# Experimental: (§2) Injured dorsal forebrains were dissected 24 hours, 3 days, 5 days, 7 days and 12 days after injury and were homogenized in a lysis buffer containing 50 mM Tris-HCl (pH 8.0), 120 mM NaCl, 0.5% Nonidet P-40, and Protease Inhibitor Cocktail (Roche, Indianapolis, Ind., USA). Brain tissue was kept on ice for 30 min and supernatants were collected after centrifugation. The brain lysates were separated by a 4-12% polyacrylamide gel electrophoresis (Invitrogen) and transferred to the membranes. The filters were blotted with rabbit polyclonal anti-SCF antibody (1:50 dilution; Chemicon, Temecula, Calif., USA). The NSPCs were treated or not treated with 100 ng/ml of rmSCF or were left untreated for 10 min and then were washed with ice-cold PBS. Some mouse NSPCs were treated with rat monoclonal c-Kit blocking antibody, (ACK4; PharMingen, San Diego, Calif., USA) for 30 min at room temperature before SCF stimulation. The NSPCs were resuspended in a protease inhibitor mixture containing radioimmunoprecipitation (RIPA) buffer (1% NP-40, 0.5% Sodium deoxycholate, 0.1% SDS, 0.1 mg/ml PMSF, 0.1 mM NaVO4 in PBS). The cell lysates were pre-cleared with protein A-Sepharose (Amersham Pharmacia Biotech, Piscataway, N.J., USA), incubated with rabbit polyclonal antibody to c-Kit (Clone H-300, Santa Cruz, San Diego, Calif., USA), and collected on protein A-Sepharose beads. […]
# endogenous NSPCs = assay: In vivo progenitor cell migration, BrdU labeling and intracerebral rmSCF injection; parameters: species or system mouse
# SCID mice [5] = assay: In vivo angiogenesis assay, matrigel plug with rmSCF (Example 3); parameters: species or system mouse; conditions: rmSCF 50 ng/ml, subcutaneous, 7 days, vs PBS control
# Experimental: Recombinant mouse SCF (rmSCF) was used at 50 ng/ml in an in vivo angiogenesis assay. The matrigel plug containing SCF or PBS control was placed subcutaneously in SCID mice for 7 days, and the blood vessel formation within the gel was examined by H&E staining. […] In the higher magnification figure on the right side, the red blood cells inside of the newly formed vessel are indicated by an arrow.
# bMVEC-B cells = assay: bMVEC-B DNA synthesis by thymidine incorporation (Example 3); type: cell-based; conditions: 72 hours
# Experimental: To specifically confirm the pro-angiogenic effects of SCF in the brain, bMVEC-B cells were used. The cells were cultured in the presence of different concentrations of rmSCF (1 ng/ml to 250 ng/ml) or 0.1% BSA only medium for 72 hours. The rate of DNA synthesis was measured by thymidine incorporation.
# NIH 3T3 cells = assay: Boyden chamber migration assay, NIH 3T3 negative control cells; type: cell-based; conditions: regardless of the concentration used
# Experimental: as §1
# c-Kit [6] = biological target: T2, c-Kit (Mus musculus, UniProt P05532); assay: c-Kit tyrosine phosphorylation by immunoprecipitation and immunoblot, mouse NSPCs; type: cell-based; conditions: 100 ng/ml of rmSCF, 10 min
# T2 construct: The 120-kDa and 140-kDa bands represent the c-Kit proteins in the human and mouse NSPCs; endogenous in cells; host or cells: mouse E14 NSPCs (neurospheres)
# Experimental: as §2
# [7] = rmSCF 3 μg intracerebral, day 7, SCID mice
# T2 sequence (P05532 25-979): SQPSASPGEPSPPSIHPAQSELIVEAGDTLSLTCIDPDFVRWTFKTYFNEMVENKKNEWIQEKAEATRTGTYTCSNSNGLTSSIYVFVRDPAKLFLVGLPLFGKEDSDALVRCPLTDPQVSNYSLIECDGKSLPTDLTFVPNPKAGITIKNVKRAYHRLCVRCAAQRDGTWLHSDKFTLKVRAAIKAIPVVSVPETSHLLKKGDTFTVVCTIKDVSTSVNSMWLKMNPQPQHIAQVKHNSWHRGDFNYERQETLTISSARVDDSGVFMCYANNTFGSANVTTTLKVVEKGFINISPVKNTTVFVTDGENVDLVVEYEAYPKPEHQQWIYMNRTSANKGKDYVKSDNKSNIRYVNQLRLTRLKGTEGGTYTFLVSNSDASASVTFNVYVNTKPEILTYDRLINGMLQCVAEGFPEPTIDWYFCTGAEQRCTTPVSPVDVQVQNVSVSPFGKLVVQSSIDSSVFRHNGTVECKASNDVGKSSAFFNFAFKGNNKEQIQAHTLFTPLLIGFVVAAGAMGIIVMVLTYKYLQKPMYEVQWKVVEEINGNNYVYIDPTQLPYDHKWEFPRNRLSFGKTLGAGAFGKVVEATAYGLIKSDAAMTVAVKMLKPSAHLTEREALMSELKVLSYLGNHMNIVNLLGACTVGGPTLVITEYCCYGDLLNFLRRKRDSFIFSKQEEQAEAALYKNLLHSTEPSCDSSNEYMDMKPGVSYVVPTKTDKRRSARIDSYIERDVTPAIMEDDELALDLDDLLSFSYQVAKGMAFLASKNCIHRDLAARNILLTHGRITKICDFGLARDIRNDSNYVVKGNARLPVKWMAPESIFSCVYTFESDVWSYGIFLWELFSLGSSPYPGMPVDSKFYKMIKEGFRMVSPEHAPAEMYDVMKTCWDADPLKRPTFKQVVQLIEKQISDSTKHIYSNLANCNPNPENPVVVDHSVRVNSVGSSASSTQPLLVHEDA
# Sequence of mouse c-Kit (SCF receptor) on mouse NSPCs (mouse) (P05532 25-979): as above
molecule,measurement,setting,value
"bevacizumab: VEGF antibody (Genentech), systemically administered",subcutaneous tumor growth,U251 glioma,suppressed subcutaneously implanted human glioma growth; also recorded: profound tumor growth suppression
Recombinant mouse SCF (rmSCF) (from UniProt P20826 26-189) (ligand),lowest rmSCF concentration with a statistically significant increase in NSPC migration (Boyden chamber),[1],5 ng/mL
same,lowest rmSCF concentration with a statistically significant increase in NSPC migration (Boyden chamber),[2],10 ng/mL
β-FGF: positive control angiogenic growth factor (R&D Systems) [reference compound],"angiogenesis in Matrigel plug (H&E, vWF-positive vessels)",SCID mice [3],high density of blood vessels; also recorded: induced substantial angiogenesis
B1,lowest SCF concentration with statistically significant increase in cell migration,human NSPCs,10 ng/mL
same,NSPC migration,"human NSPCs; rmSCF 5-500 ng/ml, 4 hours",stimulated in a dose-dependent manner; also recorded: significant chemoattractive effect on NSPC in a dose dependent manner
same,lowest SCF concentration with statistically significant increase in cell migration,mouse NSPCs,5 ng/mL
same,NSPC migration,"mouse NSPCs; rmSCF 5-500 ng/ml, 4 hours",stimulated in a dose-dependent manner; also recorded: significant chemoattractive effect on NSPC in a dose dependent manner
same,c-Kit tyrosine phosphorylation following SCF stimulation,c-Kit [4],strongly phosphorylated
same,number of BrdU-positive cells in SCF-injected area (1.5-mm^2 section) compared to the contralateral side,endogenous NSPCs; [7],approximately twice
same,"number of BrdU-positive cells in injected area, SCF-treated compared to PBS-treated animals",endogenous NSPCs; [7],2.3 times
same,BrdU-positive cells in the SCF-injected area,"endogenous NSPCs; vs contralateral side and PBS-injected animals, day 7",significant numbers of BrdU-positive cells
same,blood vessel formation within the matrigel plug (H&E),SCID mice [5],obviously abundant
same,lowest concentration at which bMVEC-B responded to SCF stimulation,bMVEC-B cells,1 ng/mL
same,bMVEC-B DNA synthesis (thymidine incorporation),bMVEC-B cells; rmSCF 1 ng/ml to 250 ng/ml,strongly stimulated bMVEC-B DNA synthesis
same,migration of NIH 3T3 cells,NIH 3T3 cells,did not induce migration
same,c-Kit tyrosine phosphorylation following SCF stimulation,c-Kit [6],strongly phosphorylated
